Data from PMC4655421.

Tested on: C=C(OP(=O)(O)O)C(=O)O
Assay: Steady-state ATP production by pyruvate kinase monitored by Rho-MatB
Format: biochemical, rabbit
Details: pH 7.5
[1] = other: single curve fit, Figure 6B, 250 μM ADP, 20 °C

pyruvate kinase (Oryctolagus cuniculus) was tested, and the Km (other: n = 5, 20.0 °C) was 103 µM, the Km [1] was 75.5 ± 3.4 µM and the Vmax [1] was 0.019 ± 0.002 μM s^–1.
